Experimental data published in patent WO2015037992A1 (dated 2015).

Target: T1, HPeV1 VP1 (recombinant capsid protein, his-tag) (human parechovirus 1 (Harris), UniProt Q66578 543-773)
T1 sequence: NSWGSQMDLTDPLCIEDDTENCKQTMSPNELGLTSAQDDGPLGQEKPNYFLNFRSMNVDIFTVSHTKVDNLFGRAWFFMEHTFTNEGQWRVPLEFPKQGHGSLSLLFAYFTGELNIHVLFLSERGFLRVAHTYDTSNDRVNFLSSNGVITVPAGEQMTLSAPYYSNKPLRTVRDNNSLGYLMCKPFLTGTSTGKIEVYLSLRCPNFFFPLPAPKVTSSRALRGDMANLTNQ

B1: AM18 (antibody, V domains shown)
VH: QVQFMQSGAEVKKPGASVKVSCKASGDTFSNFAVHWVRQAPGQRPEWMGWVNAGDSNLKYSQRFQGRLIITRDTFASTVYLDLSSLTSKDTAVYYCAGGNFGGNSATFDYWGQGTLVTVSS
VL: EIVLTQSPGTLSLSPGERATLSCRASQSVSDNYLAWYQQKPGQAPRLLIYGASHKSTGIPDRFSGSGSGTDFTLTISRLEPEDFAVYYCQQYGGSPLTFGGGTKVEIKR
Kd: 0.0115 nM
koff: 2.3e-06 s⁻¹
kon: 208000 M⁻¹ s⁻¹
